Test results published in the supplement of paper PMC12042874.
± gives the uncertainty stated by the source.

experiment: amyloid nucleation score (Sup35N fusion, yeast selection) (log enrichment); library NNK1; higher = more nucleation; inactive = no reads after selection
Method in brief: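 The nucleation score is a DiMSum log enrichment of output over input reads, centred on the mode score of non-aggregating sequences. Sequences under 100 input reads were excluded, and reads came from Illumina sequencing of plasmid inserts. Psi-negative yeast expressing Sup35N fused to peptides of 20 random codons were induced with 100 μM copper sulfate for 24 hours and grown 7 days at 30°C on medium lacking adenine and uracil. Random libraries had three technical output replicates.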

Substance | amyloid nucleation score
RAGIFKEYCSFATVKYVKDN | -1.04 ± 0.39
RAMVLCGGCTWPAREDNEKV | 0.506 ± 0.33
RANQHRGYIFSILVTFCYST | -0.505 ± 0.51
RAWASVLGSFGIGVSCCGA | -0.85 ± 1.2
RCCKQTSRVDMC | 0.156 ± 1.6
RCINRGNLAHGGGWCKCKAR | 0.743 ± 0.54
RCKGNGKNISCSPFQSREWY | 0.026 ± 0.33
RCMFAYLRVMDCNGGNVYPV | 0.409 ± 0.21
RCMMQYKFTWGIVTYRKDLG | 0.658 ± 0.34
RCRIWEEIGPIGKGERSRGC | 0.405 ± 0.45
RCSLIPGRLPRNRFVRPDYC | -1.53 ± 1.3
RDHCARYHARDGTEPYSGHR | inactive
RDIWMATYRWVRVYSLMWIG | 1.01 ± 0.48
RDMMMRRWVVSKSEL | 0.711 ± 0.72
RDPYMCSLVRAGSGSKGTI | 0.447 ± 0.56
RDSINLLDFGIVITGAKKWS | 0.218 ± 0.27
RDSQMMNT | 0.312 ± 0.37
RDTVTSNSSVT | 4.36 ± 0.095
RDVECQLVSMHKGMWKLVEE | -0.041 ± 0.28
REANNPCRVNTKSIVVRLEV | -0.787 ± 0.32
REITCR | -0.24 ± 0.26
RERESQMYFNLFSENTY | -0.435 ± 0.51
RERSIWFSFDGCRRRRRYGG | 1.41 ± 0.78
RERSYRSGDYRCYSIMWSAL | -0.382 ± 0.23

Substance | amyloid nucleation score
RESSAAVDTCTILKMTEKVG | -0.131 ± 0.66
RFFNHPMSFANMKLRSECTR | -0.832 ± 0.94
RFFPDNNCMQCDATAEDTGL | -0.246 ± 1.4
RFIGVQQMVCVTYNWFKVLG | 1.16 ± 0.19
RFLSMWSHCQLMF | inactive
RFMCWVFTGCLGLSGNSSC | 1.95 ± 0.16
RFNISIPD | -1.01 ± 0.5
RFSKNE | 0.523 ± 0.87
RFVLWYYDY | 3.12 ± 0.076
RFVMRPFATVSTFSISVPAC | -0.638 ± 0.74
RFVQRKDSFFARI | 1.21 ± 0.66
RGDGTRNRRCAIFSN | -0.064 ± 0.99
RGELVPHVVMYNLWKL | 4.21 ± 0.082
RGEVHSIWTPPLHKGQEMGI | 0.048 ± 0.78
RGFNVVHGGELRRMLMTEGD | 0.926 ± 0.43
RGPLVFYLFTFWLCDRGNVL | 0.046 ± 0.58
RGQQPFVTLKRAVFKSINTD | -0.02 ± 0.41
RGRSIDVPRE | -0.004 ± 0.53
RGRTRLKFLCLLYWWGKTKG | -0.4 ± 0.44
RGSCMIVGKACS | -0.37 ± 0.33
RGSRTY | 0.17 ± 0.53
RGSVFPCNVQVDWLRPETRA | -0.047 ± 1.1
RGSVWATSCRIAKPIVFWGW | inactive
RGVYVWKGSSLH | -0.377 ± 1.1

Substance | amyloid nucleation score
RGYVCTVVLSNILLGITTEG | 3.79 ± 0.097
RHDALLSGLYHCRCNQLNVC | 4.2 ± 0.074
RHPSWLYDVFNIVLVITACW | -0.062 ± 0.97
RHSGDFLVFMYKGVLVWSTG | 3.24 ± 0.092
RHVDRLVLWHEDSVAPGETN | 0.394 ± 0.49
RIELLWRKVSGKCLVQDFDI | 0.117 ± 0.47
RIFLSVLLLMTVNVSVWPCH | -1.23 ± 1.5
RIFYFPSLRRKGDYNWRMVV | 0.27 ± 0.39
RIGTFGNDNSMFRSDVLSVS | 0.579 ± 0.35
RIGTTWMMCIPWVLNCNV | 6.945 ± 0.051
RIIYGCCAVRFARSMAKHPM | -0.716 ± 0.38
RILAIIVGVSAVSKKSNNEL | 0.913 ± 0.48
RILYSSSSAFIGIYSLFVII | 0.292 ± 0.23
RIMGFRTFEHWIININYLLL | -0.094 ± 0.41
RINLVDLMWMRHWRMGNI | 1.41 ± 0.29
RIRNSEAGMLYTLYVTRLVD | -0.007 ± 0.31
RIYILIDYSVYFSSIELLHF | -1.67 ± 1.1
RKFAFKSIWSWYRI | 0.533 ± 0.54
RKFSNLVGRYALFICLKSLT | -0.28 ± 0.3
RKSLTGYKYCMKWGTIVAPN | 0.745 ± 0.59
RKVMKTRVSIDHVNFAERRF | 1.82 ± 0.29
RKVSANRFSYWRMGKGMYPV | 0.042 ± 0.34
RLAGKHKRTDTRSKRTPVLR | 0.495 ± 0.47
RLASRCLLALGMEWLIPMER | 2.6 ± 0.11

Substance | amyloid nucleation score
RLCQVDEAASTESRKAKWGR | 0.075 ± 0.35
RLDIDFNGLRMFLNVFLMVV | -0.188 ± 0.2
RLFCGSWDNFREGE | -0.063 ± 0.58
RLFPDAMDSRRYIKWQRVV | 0.215 ± 0.42
RLFRNTPSDFTFVYTCGRDA | 0.497 ± 0.57
RLFSENMQEVMV | -0.698 ± 0.52
RLGTSAMRCQP | 0.038 ± 0.78
RLHSKRAHTRS | inactive
RLMSADFMQQEMMRGKVMAG | -0.351 ± 0.41
RLMSNYHEGAAHKGGKHMPW | -0.495 ± 0.65
RLNVILGLTSTLNYSSVMPR | 3.67 ± 0.17
RLRLIFTCMR | 3.08 ± 0.11
RLRPTTAASSLCSVLVPR | -0.097 ± 1.1
RLSNLVRPLDRLIGVVEVGM | 0.469 ± 0.42
RLSTFSFMVSICTHCLLYTN | 1.06 ± 0.59
RLVCKFRMRKSNRGVRNMLC | 0.797 ± 0.53
RLYIHHVIHVDKYNFGVYPP | 0.245 ± 0.32
RMDFIHISTAIFSKEVDSRR | 1.04 ± 0.47
RMGNLEKCKEPGVVNRWLGI | -0.507 ± 0.52
RMHRTDWASIHKDGRPQRRF | 1.23 ± 0.76
RMMLHRGLYYNVMLNYSLI | 0.86 ± 0.47
RMSNDITNFSFTIVTM | 3.86 ± 0.08
RMYITMSQSRKVVICVMMVM | -0.164 ± 1.1
RMYWVDFAGLFIDCL | inactive

Substance | amyloid nucleation score
RNCLFVFGSLGYCSERAYKL | 6.7 ± 0.087
RNFPWQGFYSTCMMPHF | 0.986 ± 0.6
RNIVRFCNRSFRILLRGSAT | inactive
RNLQILQDYKPSSNQCGRKE | -0.885 ± 0.71
RNSDFHFIFWY | 0.865 ± 0.37
RNVCIIVVSEW | 6.589 ± 0.056
RNYCDPGAFGVWGVTGHHRV | -0.816 ± 0.92
RPEISTPFMYGYFVSGVGVA | inactive
RPKCWWVIGCIKRKSMSIGR | 2.17 ± 0.081
RPPNISLSQFYDVSCAKLRC | 0.295 ± 0.31
RPRSDSRGTRKDNGFDDVKL | 0.438 ± 0.39
RQFIELKCLFPMADVIVF | 0.315 ± 0.38
RQFSSTRFCREHRITGMQLG | 0.369 ± 0.79
RQSRVQGMYHY | 1.28 ± 0.48
RRATLSHAPGGPMGLEWSRW | 0.444 ± 1.2
RRCLSIPLVCFRDKNMNMGF | -0.246 ± 0.46
RREVRCSQR | -0.559 ± 0.61
RRGEPIKKIPACGGSLCVR | -0.368 ± 0.47
RRGGFG | -0.085 ± 0.69
RRGSCLRFKV | 0.859 ± 0.97
RRGTSFLQIYLACSHVQTSH | 4.56 ± 0.11
RRHPS | inactive
RRICSNCLFSGGIWNISGWV | 0.509 ± 1.1
RRSYDSLFVVVRRINTCSSP | -0.852 ± 1.1

Substance | amyloid nucleation score
RRTLEAFICL | -0.312 ± 0.84
RSALVLVYGLTACLNGLGMC | 3.04 ± 0.097
RSEGRRGRFNMWSLAFGDVP | -0.218 ± 0.3
RSESNVMS | 0.397 ± 0.71
RSFPSTFLLVLLQDSRC | 2.17 ± 0.24
RSGTPQSERDGGGFTEVKKT | -0.205 ± 0.42
RSGVVIVVLSVYGSSQRARG | -0.108 ± 0.4
RSHSNISKSPLFVVGGAQFM | 0.995 ± 0.56
RSLFPFSSLDMGHRRVGGKV | 0.384 ± 0.52
RSNYVDVSGLSYGGLIAL | inactive
RSRAISIKWCIGVGHPGNWV | inactive
RSRKK | 0.34 ± 0.21
RSSKGFMCMEMCLGWGQSTS | 3.41 ± 0.095
RSSPHSGWQPVDLKY | -1.37 ± 2.4
RSVGFEGMSNGWCATES | 0.634 ± 0.77
RSVMCGWDHPRDRVGAPEWL | 0.439 ± 0.71
RSVMVMLPS | 0.022 ± 0.37
RSVSRRGYVGAFPSQVWLGL | 0.214 ± 0.77
RSWKNKFYPVCFSKSGSRF | -0.215 ± 0.41
RSWPSCNCVAKANMCFARSL | -0.521 ± 0.39
RSYEDGALVVVGMRFGDRLR | 0.336 ± 0.87
RTLSWFRRKIIVLYLYYTHS | -0.272 ± 0.88
RTMCRFPYGCMTRSYVSG | 0.159 ± 0.38
RTMLMLMTSVLGGQGK | 7.02 ± 0.079

Substance | amyloid nucleation score
RTPFFKRICK | -0.303 ± 0.69
RVEKCWAMTDKCIRHRFLTS | 0.774 ± 0.48
RVIFSGYWRAIFSLS | -0.383 ± 0.66
RVIGE | 1.36 ± 0.49
RVLRIVEAVVVSSCGFVDLR | 1.69 ± 0.25
RVNLFSPYAWCIQIGSHHYG | 7.444 ± 0.047
RVPATLNLLGVRQGRD | 0.26 ± 0.72
RVRGSASMLLSLMCSFTMYE | 3.3 ± 0.14
RVSGMAGFFTIKLLKRRSWA | -0.503 ± 0.62
RVSRLPFDECSFLLVTVEGI | 0.311 ± 0.49
RVSVVQFMSKVPTRLMVIEW | 0.705 ± 0.65
RVTVIIFTLSRGYIIMSRNR | -1.12 ± 1.1
RVTYNSETTRCFCEVFAPYR | -0.875 ± 2.4
RVYYLMDLIACCPYSLGHRN | 8.606 ± 0.051
RWCWWFFSSYAFFRSNISWV | -0.197 ± 0.42
RWESKRRRRGRYGFWSVSVR | 0.129 ± 0.35
RWGGDALNAWHASDSSVGLR | -1.01 ± 0.73
RWMSYHIVPRRGSYCVTTLT | 0.492 ± 0.85
RWPVFNSCLSSSPRRAEYRY | 0.616 ± 0.59
RWRLFLRAMSLYDDVSHASA | 0.287 ± 0.23
RWSIELCVRM | -0.367 ± 0.51
RWSLGGICVYVGLNEFVLMI | 2.56 ± 0.22
RWVYSTRNHLKIVRNNKSEL | -2.15 ± 2.4
RYATSMYPL | 0.069 ± 0.56
